Laboratory results as given in patent publication US20150313990A1.

Legend:
[1] = biological target: wild-type full-length HIV-1 BaL envelope glycoprotein gp160 expressed on the surface of HeLa cells (untreated) (HIV-1 BaL)
[2] = biological target: BaL Pro 2.0 (HIV-1 BaL gp160 with a proline inserted between Tyr 173 and Ala 174) on HeLa cells (HIV-1 BaL)
[3] = biological target: native HIV-1 BaL envelope trimers on the surface of persistently infected human T cells (PM1) (HIV-1 BaL); assay: flow cytometry on infected PM1 cells pre-incubated with control buffer, PE anti-human IgG; panel header 'PM1 HT-pg9 25'
[4] = biological target: native HIV-1 BaL envelope trimers on the surface of persistently infected human T cells (PM1) (HIV-1 BaL); assay: flow cytometry on infected PM1 cells pre-incubated with sCD4 5 µg/ml (competitor, two-domain by the panel header) before PG9
[5] = biological target: native HIV-1 BaL envelope trimers on the surface of persistently infected human T cells (PM1) (HIV-1 BaL)

Substance | Geom. Mean, Comp-PE-A [1] | Geom. Mean, Comp-PE-A (ΔV1V2) | Geom. Mean, Comp-PE-A [2] | Mean fluorescence intensity (MFI) [3] | change of the MFI with sCD4 [4] [%] | MFI [5]
NC human | 139 | 152 | 129 | – | – | –
antibody 48d (CD4-induced epitope) | 484 | 240 | 244 | – | – | –
monoclonal antibody PG9 (directed to the α-helix-containing region of V2; trimer-preferring) | – | – | – | 5210 | -58 | 2220
